Test results from patent US20150329627A1 (Eli Lilly, published 2015).
Residue numbers refer to the chain shown, from its start.

Experiments:
dog Ang2 = molecular target: T1, dog Ang2 (dog, UniProt A0A8J8 19-495, limits assumed); assay: Biacore SPR, 37 C, n = 3
T1 sequence (looked up): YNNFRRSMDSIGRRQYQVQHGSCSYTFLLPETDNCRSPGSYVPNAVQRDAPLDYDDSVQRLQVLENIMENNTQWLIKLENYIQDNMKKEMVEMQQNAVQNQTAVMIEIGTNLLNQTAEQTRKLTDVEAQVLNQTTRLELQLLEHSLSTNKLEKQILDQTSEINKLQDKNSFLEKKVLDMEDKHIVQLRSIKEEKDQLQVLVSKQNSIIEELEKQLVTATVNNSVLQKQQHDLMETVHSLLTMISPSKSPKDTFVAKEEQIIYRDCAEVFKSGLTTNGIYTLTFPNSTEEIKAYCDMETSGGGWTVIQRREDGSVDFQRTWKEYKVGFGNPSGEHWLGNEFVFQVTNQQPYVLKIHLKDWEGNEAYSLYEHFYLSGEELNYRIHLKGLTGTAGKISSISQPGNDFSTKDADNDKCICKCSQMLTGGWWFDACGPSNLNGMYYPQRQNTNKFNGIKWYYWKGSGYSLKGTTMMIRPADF

[1] = molecular target: T2, human angiopoietin-2 (Ang2) (human, UniProt O15123 19-496); assay: Biacore SPR, 37 C, n = 3
T2 construct: Bought from R&D Systems (#623-AN); also called human Ang2; hAng2
T2 sequence: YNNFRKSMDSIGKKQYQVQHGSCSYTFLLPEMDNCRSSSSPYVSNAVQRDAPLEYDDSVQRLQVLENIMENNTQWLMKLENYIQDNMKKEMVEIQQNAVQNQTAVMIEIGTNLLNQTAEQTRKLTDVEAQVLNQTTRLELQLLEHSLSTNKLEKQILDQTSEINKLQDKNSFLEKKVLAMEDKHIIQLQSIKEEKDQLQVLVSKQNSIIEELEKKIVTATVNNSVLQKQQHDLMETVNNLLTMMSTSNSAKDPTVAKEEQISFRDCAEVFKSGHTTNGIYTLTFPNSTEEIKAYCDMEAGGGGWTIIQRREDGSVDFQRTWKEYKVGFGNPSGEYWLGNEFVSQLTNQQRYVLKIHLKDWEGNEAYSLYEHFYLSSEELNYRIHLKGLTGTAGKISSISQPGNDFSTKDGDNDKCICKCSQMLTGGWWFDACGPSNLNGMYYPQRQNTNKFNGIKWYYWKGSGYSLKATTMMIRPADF

mouse Ang2 = molecular target: T3, mouse Ang2 (mouse, UniProt O35608 19-496, limits assumed); assay: Biacore SPR, 37 C, n = 3
T3 sequence (looked up): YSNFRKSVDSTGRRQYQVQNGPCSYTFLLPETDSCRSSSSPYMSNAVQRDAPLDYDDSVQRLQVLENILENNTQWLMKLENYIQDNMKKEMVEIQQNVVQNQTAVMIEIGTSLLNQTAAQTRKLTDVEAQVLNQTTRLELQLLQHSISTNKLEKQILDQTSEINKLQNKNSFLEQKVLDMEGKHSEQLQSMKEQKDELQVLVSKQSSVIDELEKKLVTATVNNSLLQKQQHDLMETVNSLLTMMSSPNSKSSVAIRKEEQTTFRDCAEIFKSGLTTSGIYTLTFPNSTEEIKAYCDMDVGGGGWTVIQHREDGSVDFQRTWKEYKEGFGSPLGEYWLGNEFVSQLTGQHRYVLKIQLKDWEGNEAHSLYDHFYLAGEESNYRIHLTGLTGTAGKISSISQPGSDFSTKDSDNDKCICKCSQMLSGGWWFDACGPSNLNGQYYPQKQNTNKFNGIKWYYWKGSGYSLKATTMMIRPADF

rabbit Ang2 = molecular target: T4, rabbit Ang2 (rabbit, UniProt G1T9B3 19-496); assay: Biacore SPR, 37 C, n = 3
T4 sequence: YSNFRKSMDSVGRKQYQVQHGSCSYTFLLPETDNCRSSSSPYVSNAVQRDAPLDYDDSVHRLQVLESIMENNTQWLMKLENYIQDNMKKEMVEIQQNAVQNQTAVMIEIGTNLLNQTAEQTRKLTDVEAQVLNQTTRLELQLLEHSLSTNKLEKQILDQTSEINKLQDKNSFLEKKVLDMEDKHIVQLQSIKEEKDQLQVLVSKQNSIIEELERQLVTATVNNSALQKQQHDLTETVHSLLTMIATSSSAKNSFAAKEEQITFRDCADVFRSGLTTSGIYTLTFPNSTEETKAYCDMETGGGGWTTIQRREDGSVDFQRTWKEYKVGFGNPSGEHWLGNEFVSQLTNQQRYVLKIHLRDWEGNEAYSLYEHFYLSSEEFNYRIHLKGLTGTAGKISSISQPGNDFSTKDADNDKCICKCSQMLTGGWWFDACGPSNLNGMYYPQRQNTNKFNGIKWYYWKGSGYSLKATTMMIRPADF

rat Ang2 = molecular target: T5, rat Ang2 (rat, UniProt O35462 19-496, limits assumed); assay: Biacore SPR, 37 C, n = 3
T5 sequence (looked up): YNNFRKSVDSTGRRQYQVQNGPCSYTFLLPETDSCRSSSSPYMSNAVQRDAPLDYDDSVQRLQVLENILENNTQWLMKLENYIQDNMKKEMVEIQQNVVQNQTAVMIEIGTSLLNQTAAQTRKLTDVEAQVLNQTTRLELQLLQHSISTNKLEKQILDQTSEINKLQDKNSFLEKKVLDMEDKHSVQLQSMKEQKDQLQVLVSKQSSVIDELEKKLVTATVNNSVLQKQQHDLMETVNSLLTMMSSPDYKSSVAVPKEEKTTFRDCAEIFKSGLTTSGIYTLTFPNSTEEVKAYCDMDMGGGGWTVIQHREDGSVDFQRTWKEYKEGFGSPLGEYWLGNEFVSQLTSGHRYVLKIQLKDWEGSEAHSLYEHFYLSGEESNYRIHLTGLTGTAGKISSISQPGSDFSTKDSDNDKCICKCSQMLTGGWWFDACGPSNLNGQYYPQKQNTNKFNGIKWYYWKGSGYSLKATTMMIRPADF

cyno Ang2 = molecular target: T6, cyno Ang2 (cynomolgus, UniProt A0A2K5VNX6 19-496); assay: Biacore SPR, 37 C, n = 3
T6 construct: also called cynomolgus Ang2
T6 sequence: T2 sequence with E258G, I279V, F284L, I291V, G410A, A468G, D477G

[2] = molecular target: T2, human angiopoietin-2 (Ang2); assay: Biacore SPR, 25 C, antibody captured on Protein A, soluble Ang2 injected
[3] = molecular target: T2, human angiopoietin-2 (Ang2); assay: KinExA 3200, solution equilibrium at 25 C, human Ang2 on sepharose beads
[4] = molecular target: T2, human angiopoietin-2 (Ang2); assay: Biacore SPR, 25 C; reference 3.19.3-293HEK
[5] = molecular target: T2, human angiopoietin-2 (Ang2); assay: cell-based or functional assay
[6] = molecular target: T2, human angiopoietin-2 (Ang2); assay: blocking ELISA: antibody titrated against biotinylated human Ang2 (100 ng/ml), binding to coated human Tie2-Fc read
[7] = molecular target: T2, human angiopoietin-2 (Ang2); assay: KinExA; reference H1H685P-293HEK
[8] = molecular target: T2, human angiopoietin-2 (Ang2); assay: Biacore SPR, 25 C; reference H1H685P-293HEK

B1: Antibody A (antibody, human IgG4 S228P, kappa, F234A L235A, V domains shown)
VH: QVQLVQSGAEVKKPGASVKVSCKASGYSFTDYNMVWVRQAPGQGLEWMGYIDPYNGGTGYNQKFEGRVTMTTDTSTSTAYMELRSLRSDDTAVYYCARTRDRYDVWYFDVWGQGTLVTVSS
VL: DIQMTQSPSSVSASVGDRVTITCKASQDVYIAVAWYQQKPGKAPKLLIYWASTRDTGVPSRFSGSGSGTDFTLTISSLQPEDFATYYCHQYSSYPPTFGGGTKVEIKR
With B1 as the binder, how does the Kd (dog Ang2) read?
The Kd was 0.14 nM.

What about the koff (dog Ang2) of the same binder?
Its koff is 0.00011 s⁻¹.

What about the kon (dog Ang2) of the same binder?
Its kon is 790000 M⁻¹ s⁻¹.

And the Kd [1]?
The Kd was 0.08 nM.

What about the koff [1] of the same binder?
The koff was 7e-05 s⁻¹.

And the kon [1]?
The kon was 1e+06 M⁻¹ s⁻¹.

What about the Kd (mouse Ang2) of the same binder?
The Kd was 0.109 nM.

What about the koff (mouse Ang2) of the same binder?
Its koff is 0.00011 s⁻¹.

And the kon (mouse Ang2)?
Its kon is 1e+06 M⁻¹ s⁻¹.

What about the Kd (rabbit Ang2) of the same binder?
The Kd was 0.21 nM.

And the koff (rabbit Ang2)?
The koff was 0.00015 s⁻¹.

And the kon (rabbit Ang2)?
Its kon is 730000 M⁻¹ s⁻¹.

What about the Kd (rat Ang2) of the same binder?
The Kd was 0.18 nM.

And the koff (rat Ang2)?
The koff was 0.0002 s⁻¹.

And the kon (rat Ang2)?
The kon was 1.2e+06 M⁻¹ s⁻¹.

And the Kd (cyno Ang2)?
The Kd was 0.107 nM.

And the koff (cyno Ang2)?
The koff was 0.00029 s⁻¹.

What about the kon (cyno Ang2) of the same binder?
The kon was 2.7e+06 M⁻¹ s⁻¹.

What about the Kd [2] of the same binder?
The Kd was 0.038 nM.

And the koff [2]?
The koff was 2.8e-05 s⁻¹.

What about the kon [2] of the same binder?
Its kon is 747000 M⁻¹ s⁻¹.

And the Kd [3]?
The Kd was 0.00011 nM.

What about the “fold lower KD than 3.19.3-293HEK” value [4] of the same binder?
The value was ~8 fold.

What about the “IC50, neutralization of human Ang2 induced phospho-Tie-2 in CHO-Tie-2 cells” value [5] of the same binder?
Its value is 0.773 nM.

What about the IC50 [6] of the same binder?
Its IC50 is 0.027 nM.

What about the “fold lower KD than H1H685P-293HEK” value [7] of the same binder?
Its value is ~8 fold.

What about the “fold lower KD than H1H685P-293HEK” value [8] of the same binder?
Its value is ~4 fold.
